Data on twelve substances can be found in US20200024330A1.

Test in all cases: cell-based or functional assay
Assay [1] concerns the target HIV-1 APV-17 envelope glycoprotein (Env) on pseudovirus (HIV-1).
The target of assay [2] is aMLV envelope protein on pseudotyped virus (negative control) (aMLV).
Assay [3] deals with HIV-1 92BR020 envelope protein (Env) on pseudotyped virus (HIV-1 isolate 92BR020).
Assay [4] has as its target HIV-1 SF162 envelope protein (Env) on pseudotyped virus (HIV-1 isolate SF162) (UniProt P19550).
The target in assay [5] is HIV-1 92RW020 Env (pseudovirus) (HIV-1 92RW020).
The target in assay [6] is HIV-1 Env of isolate MGRM-C-026 (subtype C), on pseudovirus (HIV-1).
Assay [7] deals with HIV-1 envelope glycoprotein (Env) of isolate MGRM-Chronic-B-018, on pseudovirus (HIV-1).
Assay [8] concerns the target HIV-1 Env of isolate PVO.4 (subtype B) (HIV-1).
For assay [9], the target named is HIV-1 Env of isolate MGRM-F1-018 (clade F), on pseudovirus (HIV-1).
Assay [10] concerns the target HIV-1 envelope glycoprotein (Env) of isolate MGRM-Chronic-B-002, on pseudovirus (HIV-1).
Assay [11] concerns the target HIV-1 envelope glycoprotein (Env) of isolate APV_6, on pseudovirus (HIV-1).
The target of assay [12] is HIV-1 envelope glycoprotein (Env) of isolate APV_17, on pseudovirus (HIV-1).
For assay [13], the target named is HIV-1 Env of isolate 92RW024 (HIV-1).
Assay [14] addresses HIV-1 envelope glycoprotein (Env) of isolate MGRM-Chronic-B-023, on pseudovirus (HIV-1).
For assay [15], the target named is HIV-1 envelope glycoprotein (Env) of isolate MGRM-Chronic-B-004, on pseudovirus (HIV-1).
For assay [16], the target named is HIV-1 Env of isolate MGRM-C-025 (subtype C), on pseudovirus (HIV-1).
Assay [17] concerns the target HIV-1 APV17 Env (pseudovirus) (HIV-1).
Assay [18] concerns the target HIV-1 94UG103 Env (pseudovirus) (HIV-1).
Assay [19] deals with aMLV envelope on pseudovirus (negative control).
In assay [20] the target is HIV-1 JR-CSF Env N392Q (HIV-1 (isolate JR-CSF)) (UniProt P20871).
Assay [21] concerns the target HIV-1 JR-CSF Env I424A (HIV-1 (isolate JR-CSF)) (UniProt P20871).
For assay [22], the target named is HIV-1 JR-CSF Env I414A (HIV-1 (isolate JR-CSF)) (UniProt P20871).
The target of assay [23] is HIV-1 JR-CSF Env I326A (HIV-1 isolate JR-CSF) (UniProt P20871).
The target in assay [24] is HIV-1 JR-CSF Env S393A (HIV-1 (isolate JR-CSF)) (UniProt P20871).
Assay [25] deals with HIV-1 JR-CSF Env K421A (HIV-1 (isolate JR-CSF)) (UniProt P20871).
Assay [26] has as its target HIV-1 APV13 envelope glycoprotein (Env) (HIV-1).
In assay [27] the target is HIV-1 JR-CSF Env N241A (HIV-1 JR-CSF) (UniProt P20871).
For assay [28], the target named is HIV-1 JR-CSF Env Q422A (HIV-1 (isolate JR-CSF)) (UniProt P20871).
In assay [29] the target is HIV-1 JR-CSF Env T202A (HIV-1 JR-CSF) (UniProt P20871).
Assay [30] has as its target HIV-1 JR-CSF Env T341A (HIV-1 isolate JR-CSF) (UniProt P20871).
Assay [31] deals with HIV-1 JR-CSF Env I307A (HIV-1 JR-CSF) (UniProt P20871).
Assay [32] addresses HIV-1 JR-CSF Env I323A (HIV-1 isolate JR-CSF) (UniProt P20871).
For assay [33], the target named is HIV-1 JR-CSF Env N276A (HIV-1 JR-CSF) (UniProt P20871).
Assay [34] concerns the target HIV-1 JR-CSF Env R419A (HIV-1 (isolate JR-CSF)) (UniProt P20871).
Assay [35] addresses HIV-1 JR-CSF Env N396A (HIV-1 (isolate JR-CSF)) (UniProt P20871).
The target of assay [36] is HIV-1 JRFL envelope glycoprotein (Env) (HIV-1).
For assay [37], the target named is HIV-1 JR-CSF Env S199A (HIV-1 JR-CSF) (UniProt P20871).
The target in assay [38] is HIV-1 JR-CSF Env S334A (HIV-1 isolate JR-CSF) (UniProt P20871).
Assay [39] has as its target HIV-1 APV17 envelope glycoprotein (Env) (HIV-1).
Assay [40] concerns the target HIV-1 Env of isolate MGRM-F1-008 (HIV-1).

As to 1443_C16 (PG16) (TCN-116) (antibody), the IC90 (pseudovirus neutralization) in assay [1] was over 50 µg/mL. The IC50, pseudovirus neutralization, 1 hour Virus/Ab Incubation in assay [2], in assay [3] and in [4] was over 50 µg/mL each time. Besides, the IC50, pseudovirus neutralization, 18 hour Virus/Ab Incubation in assay [2], in assay [3] and in assay [4] was over 50 µg/mL throughout. In [5], this substance registered an IC50 (ug/ml), neutralization of 0.09 µg/mL.

On to 1495_C14 (PGC14) (antibody), for which the IC50, pseudovirus neutralization, 1 hour Virus/Ab Incubation in [2] was over 50 µg/mL; in assay [3] it was 1.17 µg/mL; in assay [4], 0.0069 µg/mL. Also, the IC50, pseudovirus neutralization, 18 hour Virus/Ab Incubation is over 50 µg/mL in assay [2], 0.244 µg/mL in assay [3] and under 0.0025 µg/mL in assay [4].

For orientation: IC50 means the point on the concentration scale where inhibition reaches its midpoint. 1496_C09 (PG9) (TCN-109) (antibody): the figures for the IC50 (µg/mL), pseudovirus neutralization in assay [6], in assay [8] and in [16] were 0.06 µg/mL, 24.8 µg/mL and 0.148 µg/mL, respectively. Besides, the IC50, pseudovirus neutralization was found to be 0.216 µg/mL in assay [7]; 3.44 µg/mL in [10]; 0.181 µg/mL in [11]; 34.8 µg/mL in assay [12]; 0.027 µg/mL in assay [14]; 0.533 µg/mL in [15]. For the same substance, the IC50 (µg/mL), single-round pseudovirus neutralization in assay [9] came to 0.019 µg/mL. Further, the half-maximal inhibitory concentration (IC50) in [13] was 0.258 µg/mL. In [5], this substance came in with an IC50 (ug/ml), neutralization of 0.1 µg/mL.

In [17], 4838_L06 (PGT-121) (antibody) showed a neutralization IC80 of 0.371 µg/mL, a neutralization IC90 of 0.799 µg/mL and a neutralization IC95 of 1.55 µg/mL. The substance further gave a neutralization IC80 in [18] of 8.85 µg/mL.

In assay [19], 4858_P08 (PGT-123) (antibody) returned an IC50, pseudovirus neutralization of over 10 µg/mL; an IC80, pseudovirus neutralization of over 10 µg/mL; an IC90 (pseudovirus neutralization) of over 10 µg/mL; an IC95, pseudovirus neutralization of over 10 µg/mL.

In [19], 5123_A06 (PGT-125) (antibody) had a neutralization IC50 of over 10 µg/mL, a neutralization IC80 of over 10 µg/mL, a neutralization IC90 of over 10 µg/mL and a neutralization IC95 of over 10 µg/mL.

Usually IC80 stands for the point of the concentration-response curve where the effect stands at 80%. Read a low IC80 as an effect from little substance. One may read the IC90 as the concentration needed for an effect of 90%. Lower therefore signals greater potency. Usually IC95 stands for the point of the concentration-response curve where the effect stands at 95%. The low end stands for greater potency, the high end for weaker potency. In assay [17], 5141_B17 (PGT-126) (antibody) showed an IC50 of 0.501 µg/mL, an 80% effect concentration (IC80) of 4.43 µg/mL, an IC90 of over 10 µg/mL and an IC95 of over 10 µg/mL. In assay [18], this substance displayed an IC50 of 0.0091 µg/mL, a concentration for an effect of 80% (IC80) of 0.0316 µg/mL, a concentration for an effect of 90% (IC90) of 0.0655 µg/mL and a concentration for an effect of 95% (IC95) of 0.128 µg/mL.

For the substance PGT-121 (antibody), the Fold IC50 increase relative to wild-type in [20] turned out to be 0.9 fold; in assay [21], 0.9 fold; in assay [22], 0.5 fold; in assay [23], 0.7 fold; in assay [24] it was 0.6 fold; in assay [25], 1.3 fold. For the same substance, the Fold IC50 increase relative to wild-type in assay [27] was 0.5 fold; in assay [28], 1.2 fold; in assay [29], 1.2 fold; in assay [30], 0.5 fold; in assay [31] it was 3.7 fold; in [32], 1.9 fold. For the same substance, the Fold IC50 increase relative to wild-type is 0.8 fold in assay [33]; 1.8 fold in assay [34]; 1.3 fold in assay [35]; 0.8 fold in [37]; over 50 fold in [38]. Besides, the IC50 neutralization in assay [26] is 0.316 µg/mL; in assay [36], 0.0276 µg/mL; in [39] it was 0.095 µg/mL.

Consider PGT-122 (antibody), for which the Fold IC50 increase relative to wild-type in assay [20] is 1 fold; in assay [21], 0.8 fold; in assay [22], 0.5 fold; in assay [23] it was 0.6 fold; in [24], 0.5 fold; in assay [25], 1.2 fold. For the same substance, the Fold IC50 increase relative to wild-type in assay [27] stood at 1.4 fold; in assay [28], 1.1 fold; in assay [29], 1.5 fold; in assay [30], 0.3 fold; in assay [31], 3.8 fold; in assay [32] it was 2.2 fold. Moreover, the Fold IC50 increase relative to wild-type in [33] was 1.4 fold; in [34] it was 0.8 fold; in assay [35], 1.1 fold; in assay [37], 1 fold; in assay [38] it was over 50 fold. Moreover, the IC50 neutralization stood at 0.992 µg/mL in assay [26], 0.0471 µg/mL in assay [36] and 0.522 µg/mL in assay [39].

In the case of PGV04 (antibody), the IC50 (µg/mL), pseudovirus neutralization in assay [6] was 0.303 µg/mL; in [8], 0.454 µg/mL; in assay [16], over 50 µg/mL; in [40], 1.03 µg/mL. For the same substance, the IC50, pseudovirus neutralization in assay [7] amounted to 0.164 µg/mL; in assay [10] it was 0.142 µg/mL; in assay [11], 24.2 µg/mL; in [12], 0.309 µg/mL; in assay [14] it was 0.139 µg/mL; in assay [15] it was 0.047 µg/mL. The IC50 (µg/mL), single-round pseudovirus neutralization in assay [9] was determined as 0.027 µg/mL. In addition, in assay [13], the IC50 amounted to 0.31 µg/mL.

As for VRC01 (antibody), the IC50, pseudovirus neutralization in assay [40] turned out to be 1.11 µg/mL.

Regarding b12 (antibody), in [1], the IC90 (pseudovirus neutralization) was over 50 µg/mL.
